Laboratory results taken from the supplement of paper PMC11246515.
± gives the standard deviation of the averaged measurements.

Test: total protein half-life in vivo (active degradation + dilution); higher = more stable protein
[1] = E. coli NCM3722 delta-clpP delta-lon delta-hslV, growth: N-lim chemostat, doubling time 6 h
[2] = E. coli NCM3722 delta-clpP, growth: N-lim chemostat, doubling time 6 h
[3] = E. coli NCM3722 delta-hslV, growth: N-lim chemostat, doubling time 6 h
[4] = E. coli NCM3722 delta-smpB, growth: N-lim chemostat, doubling time 6 h
[5] = wild type E. coli NCM3722, growth: C-lim chemostat, doubling time 3 h
[6] = wild type E. coli NCM3722, growth: C-lim chemostat, doubling time 6 h
[7] = wild type E. coli NCM3722, growth: C-lim chemostat, doubling time 12 h
[8] = wild type E. coli NCM3722, growth: N-lim chemostat, doubling time 6 h
[9] = wild type E. coli NCM3722, growth: P-lim chemostat, doubling time 6 h
[10] = wild type E. coli NCM3722, growth: P-lim chemostat, doubling time 12 h
[11] = E. coli NCM3722 delta-lon, growth: N-lim chemostat, doubling time 6 h
[12] = wild type E. coli NCM3722, growth: N-lim chemostat, doubling time 12 h

Sequence | total protein half-life in vivo [1] [h] | total protein half-life in vivo [2] [h] | total protein half-life in vivo [3] [h] | total protein half-life in vivo [4] [h] | total protein half-life in vivo [5] [h] | total protein half-life in vivo [6] [h] | total protein half-life in vivo [7] [h] | total protein half-life in vivo [8] [h] | total protein half-life in vivo [9] [h] | total protein half-life in vivo [10] [h] | total protein half-life in vivo [11] [h] | total protein half-life in vivo [12] [h]
MTRYQHLATLLAERIEQGLYRHGEKLPSVRSLSQEHGVSISTVQQAYQTLETMKLITPQPRSGYFVAQRKAQPPVPPMTRPVQRPVEITQWDQVLDMLEAHSDSSIVPLSKSTPDVEAPSLKPLWRELSRVVQHNLQTVLGYDLLAGQRVLREQIARLMLDSGSVVTADDIIITSGCHNSMSLALMAVCKPGDIVAVESPCYYGSMQMLRGMGVKVIEIPTDPETGISVEALELALEQWPIKGIILVPNCNNPLGFIMPDARKRAVLSLAQRHDIVIFEDDVYGELATEYPRPRTIHSWDIDGRVLLCSSFSKSIAPGLRVGWVAPGRYHDKLMHMKYAISSFNVPSTQMAAATFVLEGHYHRHIRRMRQIYQRNLALYTCWIREYFPCEICITRPKGGFLLWIELPEQVDMVCVARQLCRMKIQVAAGSIFSASGKYRNCLRINCALPLSETYREALKQIGEAVYRAME | 6.94 ± 1 | 3.72 ± 0.22 | 2.89 | 2.79 ± 0.039 | 3.04 ± 0.04 | 4.58 ± 0.076 | 7.69 ± 0.59 | 3.09 ± 0.11 | 3.19 ± 0.25 | 6.91 ± 3.5 | – | –
MTSLVSLENVSVSFGQRRVLSDVSLELKPGKILTLLGPNGAGKSTLVRVVLGLVTPDEGVIKRNGKLRIGYVPQKLYLDTTLPLTVNRFLRLRPGTHKEDILPALKRVQAGHLINAPMQKLSGGETQRVLLARALLNRPQLLVLDEPTQGVDVNGQVALYDLIDQLRRELDCGVLMVSHDLHLVMAKTDEVLCLNHHICCSGTPEVVSLHPEFISMFGPRGAEQLGIYRHHHNHRHDLQGRIVLRRGNDRS [P0A9X1] | 5.6 ± 0.31 | 5.12 ± 0.41 | 2.88 ± 1.1 | 4.75 ± 2.8 | 2.63 ± 0.088 | 4.39 ± 0.11 | 6.41 ± 2.1 | 2.6 ± 0.37 | 4.12 ± 0.059 | 7.83 ± 2 | 2 ± 0.1 | 5.01 ± 2
MTSPNILLTRIDNRLVHGQVGVTWTSTIGANLLVVVDDVVANDDIQQKLMGITAETYGFGIRFFTIEKTINVIGKAAPHQKIFLICRTPQTVRKLVEGGIDLKDVNVGNMHFSEGKKQISSKVYVDDQDLTDLRFIKQRGVNVFIQDVPGDQKEQIPD | 5.94 ± 1 | 3.82 ± 0.62 | 4.08 ± 0.26 | 4.01 ± 0.37 | 3.52 ± 0.3 | 5.07 ± 0.32 | 6.95 ± 0.34 | 3.67 | 4.28 ± 1.7 | 11 ± 0.5 | – | 6.28 ± 0.71
MTTDQHQEILRTEGLSKFFPGVKALDNVDFSLRRGEIMALLGENGAGKSTLIKALTGVYHADRGTIWLEGQAISPKNTAHAQQLGIGTVYQEVNLLPNMSVADNLFIGREPKRFGLLRRKEMEKRATELMASYGFSLDVREPLNRFSVAMQQIVAICRAIDLSAKVLILDEPTASLDTQEVELLFDLMRQLRDRGVSLIFVTHFLDQVYQVSDRITVLRNGSFVGCRETCELPQIELVKMMLGRELDTHALQRAGRTLLSDKPVAAFKNYGKKGTIAPFDLEVRPGEIVGLAGLLGSGRTETAEVIFGIKPADSGTALIKGKPQNLRSPHQASVLGIGFCPEDRKTDGIIAAASVRENIILALQAQRGWLRPISRKEQQEIAERFIRQLGIRTPSTEQPIEFLSGGNQQKVLLSRWLLTRPQFLILDEPTRGIDVGAHAEIIRLIETLCADGLALLVISSELEELVGYADRVIIMRDRKQVAEIPLAELSVPAIMNAIAA [Q6BEX0] | 4.28 | 6.33 ± 1.2 | 4.45 | 5.51 | 3 ± 0.35 | 6.5 ± 0.63 | 10.7 ± 0.33 | – | 5.93 ± 0.44 | 11 ± 1.1 | – | 9.4
MTTETRSLYSQLPAIDRLLRDSSFLSLRDTYGHTRVVELLRQMLDEAREVIRGSQTLPAWCENWAQEVDARLTKEAQSALRPVINLTGTVLHTNLGRALQAEAAVEAVAQAMRSPVTLEYDLDDAGRGHRDRALAQLLCRITGAEDACIVNNNAAAVLLMLAATASGKEVVVSRGELVEIGGAFRIPDVMRQAGCTLHEVGTTNRTHANDYRQAVNENTALLMKVHTSNYSIQGFTKAIDEAELVALGKELDVPVVTDLGSGSLVDLSQYGLPKEPMPQELIAAGVSLVSFSGDKLLGGPQAGIIVGKKEMIARLQSHPLKRALRADKMTLAALEATLRLYLHPEALSEKLPTLRLLTRSAEVIQIQAQRLQAPLAAHYGAEFAVQVMPCLSQIGSGSLPVDRLPSAALTFTPHDGRGSHLESLAARWRELPVPVIGRIYDGRLWLDLRCLEDEQRFLEMLLK [P0A821] | 6.33 ± 0.17 | 6.19 ± 0.19 | 5.62 ± 1 | 5.49 ± 0.32 | 3.16 ± 0.51 | – | 11.7 ± 0.94 | 5.64 ± 0.39 | 6.06 ± 0.4 | 11.9 ± 1.1 | 5.86 ± 0.47 | 10.6 ± 1
MTTHDRVRLQLQALEALLREHQHWRNDEPQPHQFNSTQPFFMDTMEPLEWLQWVLIPRMHDLLDNKQPLPGAFAVAPYYEMALATDHPQRALILAELEKLDALFADDAS | 5.66 ± 0.27 | – | – | 3.91 | 2.09 | 4.97 ± 0.19 | 11.8 ± 5.3 | 3.394 ± 0.03 | 3.49 ± 1.9 | 7.56 ± 1.8 | – | 6.93
MTTIVDSNLPVARPSWDHSRLESRIVHLGCGAFHRAHQALYTHHLLESTDSDWGICEVNLMPGNDRVLIENLKKQQLLYTVAEKGAESTELKIIGSMKEALHPEIDGCEGILNAMARPQTAIVSLTVTEKGYCADAASGQLDLNNPLIKHDLENPTAPKSAIGYIVEALRLRREKGLKAFTVMSCDNVRENGHVAKVAVLGLAQARDPQLAAWIEENVTFPCTMVDRIVPAATPETLQEIADQLGVYDPCAIACEPFRQWVIEDNFVNGRPDWDKVGAQFVADVVPFEMMKLRMLNGSHSFLAYLGYLGGYETIADTVTNPAYRKAAFALMMQEQAPTLSMPEGTDLNAYATLLIERFSNPSLRHRTWQIAMDGSQKLPQRLLDPVRLHLQNGGSWRHLALGVAGWMRYTQGVDEQGNAIDVVDPMLAEFQKINAQYQGADRVKALLGLSGIFADDLPQNADFVGAVTAAYQQLCERGARECVAAL | 4.94 ± 2.6 | 3.08 ± 0.24 | 3.228 ± 0.01 | 2.96 ± 0.24 | 2.91 ± 0.27 | 4.32 ± 0.52 | 7.28 ± 2.2 | 3.33 ± 0.044 | 5.28 ± 0.23 | 9.27 ± 0.21 | 3.47 ± 0.17 | 6.19 ± 2.3
MTTKKADYIWFNGEMVRWEDAKVHVMSHALHYGTSVFEGIRCYDSHKGPVVFRHREHMQRLHDSAKIYRFPVSQSIDELMEACRDVIRKNNLTSAYIRPLIFVGDVGMGVNPPAGYSTDVIIAAFPWGAYLGAEALEQGIDAMVSSWNRAAPNTIPTAAKAGGNYLSSLLVGSEARRHGYQEGIALDVNGYISEGAGENLFEVKDGVLFTPPFTSSALPGITRDAIIKLAKELGIEVREQVLSRESLYLADEVFMSGTAAEITPVRSVDGIQVGEGRCGPVTKRIQQAFFGLFTGETEDKWGWLDQVNQ [P0AB80] | 4.699 ± 0.033 | 4.25 ± 1.3 | 3.48 ± 0.06 | 3.75 ± 0.1 | 3.24 ± 0.089 | 5.63 ± 0.072 | 10.9 ± 0.13 | 3.49 ± 0.13 | 5.65 ± 0.27 | 10.9 ± 0.95 | 4.94 ± 1.1 | 5.36 ± 0.066
MTTKNMNTPPGSTQENEIDLLRLVGELWDHRKFIISVTALFTLIAVAYSLLSTPIYQADTLVQVEQKQGNAILSGLSDMIPNSSPESAPEIQLLQSRMILGKTIAELNLRDIVEQKYFPIVGRGWARLTKEKPGELAISWMHIPQLNGQDQQLTLTVGENGHYTLEGEEFTVNGMVGQRLEKDGVALTIADIKAKPGTQFVLSQRTELEAINALQETFTVSERSKESGMLELTMTGDDPQLITRILNSIANNYLQQNIARQAAQDSQSLEFLQRQLPEVRSELDQAEEKLNVYRQQRDSVDLNLEAKAVLEQIVNVDNQLNELTFREAEISQLYKKDHPTYRALLEKRQTLEQERKRLNKRVSAMPSTQQEVLRLSRDVEAGRAVYLQLLNRQQELSISKSSAIGNVRIIDPAVTQPQPVKPKKALNVVLGFILGLFISVGAVLARAMLRRGVEAPEQLEEHGISVYATIPMSEWLDKRTRLRKKNLFSNQQRHRTKNIPFLAVDNPADSAVEAVRALRTSLHFAMMETENNILMITGATPDSGKTFVSSTLAAVIAQSDQKVLFIDADLRRGYSHNLFTVSNEHGLSEYLAGKDELNKVIQHFGKGGFDVITRGQVPPNPSELLMRDRMRQLLEWANDHYDLVIVDTPPMLAVSDAAVVGRSVGTSLLVARFGLNTAKEVSLSMQRLEQAGVNIKGAILNGVIKRASTAYSYGYNYYGYSYSEKE | 4.74 ± 1.7 | – | – | – | 1.74 ± 0.34 | 3.3 | 7.46 | – | 1.53 ± 0.24 | – | – | –
MTTLKLDTLSDRIKAHKNALVHIVKPPVCTERAQHYTEMYQQHLDKPIPVRRALALAHHLANRTIWIKHDELIIGNQASEVRAAPIFPEYTVSWIEKEIDDLADRPGAGFAVSEENKRVLHEVCPWWRGQTVQDRCYGMFTDEQKGLLATGIIKAEGNMTSGDAHLAVNFPLLLEKGLDGLREEVAERRSRINLTVLEDLHGEQFLKAIDIVLVAVSEHIERFAALAREMAATETRESRRDELLAMAENCDLIAHQPPQTFWQALQLCYFIQLILQIESNGHSVSFGRMDQYLYPYYRRDVELNQTLDREHAIEMLHSCWLKLLEVNKIRSGSHSKASAGSPLYQNVTIGGQNLVDGQPMDAVNPLSYAILESCGRLRSTQPNLSVRYHAGMSNDFLDACVQVIRCGFGMPAFNNDEIVIPEFIKLGIEPQDAYDYAAIGCIETAVGGKWGYRCTGMSFINFARVMLAALEGGHDATSGKVFLPQEKALSAGNFNNFDEVMDAWDTQIRYYTRKSIEIEYVVDTMLEENVHDILCSALVDDCIERAKSIKQGGAKYDWVSGLQVGIANLGNSLAAVKKLVFEQGAIGQQQLAAALADDFDGLTHEQLRQRLINGAPKYGNDDDTVDTLLARAYQTYIDELKQYHNPRYGRGPVGGNYYAGTSSISANVPFGAQTMATPDGRKAHTPLAEGASPASGTDHLGPTAVIGSVGKLPTAAILGGVLLNQKLNPATLENESDKQKLMILLRTFFEVHKGWHIQYNIVSRETLLDAKKHPDQYRDLVVRVAGYSAFFTALSPDAQDDIIARTEHML | 4.17 | – | – | – | – | – | – | – | – | – | – | –
MTTMNPFLVQSTLPYLAPHFDQIANHHYRPAFDEGMQQKRAEIAAIALNPQMPDFNNTILALEQSGELLTRVTSVFFAMTAAHTNDELQRLDEQFSAELAELANDIYLNGELFARVDAVWQRRESLGLDSESIRLVEVIHQRFVLAGAKLAQADKAKLKVLNTEAATLTSQFNQRLLAANKSGGLVVNDIAQLAGMSEQEIALAAEAAREKGLDNKWLIPLLNTTQQPALAEMRDRATREKLFIAGWTRAEKNDANDTRAIIQRLVEIRAQQATLLGFPHYAAWKIADQMAKTPEAALNFMREIVPAARQRASDELASIQAVIDKQQGGFSAQPWDWAFYAEQVRREKFDLDEAQLKPYFELNTVLNEGVFWTANQLFGIKFVERFDIPVYHPDVRVWEIFDHNGVGLALFYGDFFARDSKSGGAWMGNFVEQSTLNKTHPVIYNVCNYQKPAAGEPALLLWDDVITLFHEFGHTLHGLFARQRYATLSGTNTPRDFVEFPSQINEHWATHPQVFARYARHYQSGAAMPDELQQKMRNASLFNKGYEMSELLSAALLDMRWHCLEENEAMQDVDDFELRALVAENMDLPAIPPRYRSSYFAHIFGGGYAAGYYAYLWTQMLADDGYQWFVEQGGLTRENGLRFREAILSRGNSEDLERLYRQWRGKAPKIMPMLQHRGLNI | 5.48 ± 0.74 | 4.67 ± 0.22 | 4.335 ± 0.038 | 4.43 ± 0.24 | 3.13 ± 0.13 | 5.67 ± 0.52 | 9.87 ± 0.43 | 4.53 ± 0.2 | 6.12 ± 0.066 | 11.7 ± 0.94 | 4.65 ± 0.16 | 7.84 ± 0.66
